Assay results published in patent US20180194850A1 (GENERAL HOSPITAL, published 2018).

How the values were obtained:
[1] = biological target: T1, EGCRL2…; assay: CLIPS peptide-array ELISA [Continued]
T1 sequence (peptide, 2 = Cys(Acm)): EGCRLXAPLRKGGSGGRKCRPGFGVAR

[2] = biological target: T2, peptide fragment defined by residues 130-149 of SEQ ID NO: 7 within human TNFR2 (KQEGCRLCAPLRKCRPGFGV) (human); assay: comparison of affinity for linear peptides; assay not named in the sentence (linear peptide ELISA, FIG. 13B)
T2 construct: also called linear peptide containing the KCRPG motif
T2 peptide: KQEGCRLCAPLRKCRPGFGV
Description: ELISA was also used to determine linear epitopes present on the extracellular surface of TNFR2.
Linear peptides corresponding to various regions within the TNFR2 primary sequence were purchased from GenScript (Piscataway, N.J.), diluted in coating buffer and placed on Immulon 4HBX Flat Bottom Microtiter Plates (Thermo Scientific) at a concentration of 1 μg/well. Primary TNFR2 antagonistic antibodies (0.1 μg/well) were incubated with substrates. Secondary antibodies against rodent IgG were used to detect the primary antibodies. Absorbance was measured using the SPECTRAMAX® 190 Absorbance Plate Reader and analyzed with SoftMax Pro 6.3 (Molecular Devices).

S03933 = biological target: T3, S03933; assay: linear peptide ELISA (absorbance); Affinity +
T3 sequence (peptide): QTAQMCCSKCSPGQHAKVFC

B1: antagonistic TNFR2 antibody TNFRAB1 (antibody, V domains shown)
VH: EVQLQESGGGLVKPGGSLKLSCAASGFTFSSYVMSWVRQTPEKRLEWVATISSGGSYTYYPDSVKGRFTISRDNAKNTLYLQMSSLRSEDTAMYYCARQRVDGYSSYWYFDVWGAGTAVTVSS
VL: DIVLTQSPAIMSASPGEKVTITCSASSSVYYMYWFQQKPGTSPKLWIYSTSNLASGVPVRFSGSGSGTSYSLTISRMEAEDAATYYCQQRRNYPYTFGGGTKLEIKR
notes: Murine monoclonal IgG; For SPR the antibody was biotinylated and captured on streptavidin; also called TNFR2 antagonist 1
Raw luminescence data [1]: 358
fold greater affinity than for the peptide of residues 48-67 (…, SEQ ID NO: 18) [2]: 40 fold
Reading (S03933): 0.1
